Assay [1] addresses T1, human FGF21 receptor (FGF21R): full length human FGFR1c and full length human β-Klotho co-expressed on cells (human, UniProt P11362 22-822; Q86Z14 53-1044). Nature of the assay: cell-based or functional assay.
Assay [2] has as its target T1, human FGF21 receptor (FGF21R): full …. Kind of assay: cell-based or functional assay. This is another data set of the same source.

Changes are numbered by the printed parent chain. Names may count otherwise.

B1: Fibroblast Growth Factor 21 (FGF21), human (ligand)
chain: HPIPDSSPLLQFGGQVRQRYLYTDDAQQTEAHLEIREDGTVGGAADQSPESLLQLKALKPGVIQILGVKTSRFLCQRPDGALYGSLHFDPEACSFRELLLEDGYNVYQSEAHGLPLHLPGNKSPHRDPAPRGPARFLPLPGLPPAPPEPPGILAPQPPDVGSSDPLSMVGPSQGRSPSYAS
modifications: Alexa 647-NHS label (Example 1); biotin (Example 8, second Biacore analysis)
For B1, in assay [1], the “EC50 (read off the curve); luciferase reporter (RLU) in AM-1/D FGFR1c+β-Klotho Luc cells, FGF21 alone (0 nM 39F11)” value was 1 to 2 nM.

B2: 16H7 variant, heavy chain H3, light chain D49A (antibody, human IgG2, lambda, V domains shown)
VH: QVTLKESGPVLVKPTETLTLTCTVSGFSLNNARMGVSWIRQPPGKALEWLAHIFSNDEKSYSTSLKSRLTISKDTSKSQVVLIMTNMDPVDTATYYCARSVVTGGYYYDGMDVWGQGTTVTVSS
VL: SYVLTQPPSVSVAPGQTARITCGGNNIGSESVHWYQQKPGQAPVLVVYADSDRPSGIPERFSGSNSGNTATLTISRVEAGDEADYYCQVWDGNSDHVVFGGGTKLTVLG
For B2, the “EC50 (nM), Erk-phosphorylation, human adipocyte assay” value in assay [2] was 0.63 nM.

B3: 16H7 variant, heavy chain H3, light chain D91A (antibody, human IgG2, lambda, V domains shown)
VH: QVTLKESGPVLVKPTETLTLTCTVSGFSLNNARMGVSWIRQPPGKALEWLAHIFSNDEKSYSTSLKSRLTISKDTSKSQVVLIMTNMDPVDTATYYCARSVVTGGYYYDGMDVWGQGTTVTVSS
VL: B2 VL with A49D, D91A
Turning to B3, the “EC50 (nM), Erk-phosphorylation, human adipocyte assay” value in assay [2] was determined as 1.3 nM.

(Values after patent US20250163160A1 (Amgen, published 2025).)
